From PMC4289141 (Journal of the American Chemical Society, 2013) come the findings set out here.

This series deals with the molecule itself. The series can be described thus: cross-linking.

B1: ^A74/C81/C96RIDC1 (natural protein)
chain: not shown
modifications: heme covalently (c-type) linked to the protein backbone; in the tetramer disulfide bonds between monomers
With B1, the “stoichiometry N” value worked out at 4.

What is called stoichiometry N is the number of molecules, sites or subunits per partner or assembly.
